From patent US6306613, “Modulators of leaderless protein export and methods for identifying and using the same” (Ciblex Corporation, dated 2001)

Experiments:
[1] = biological target: T1, rat Na+/K+ ATPase α1 subunit (rat, UniProt P06685); assay: co-immunoprecipitation from co-transfected COS cells (FIGS. 7-9)
[2] = biological target: T1, rat Na+/K+ ATPase α1 subunit; assay: co-immunoprecipitation from co-transfected COS cells with anti-Na+/K+ ATPase α1 or anti-hCG antibody (FIG. 6)

Row | Binder | binding result [1] | binding result [2]
1 | neomycin phosphotransferase (NPT) (enzyme) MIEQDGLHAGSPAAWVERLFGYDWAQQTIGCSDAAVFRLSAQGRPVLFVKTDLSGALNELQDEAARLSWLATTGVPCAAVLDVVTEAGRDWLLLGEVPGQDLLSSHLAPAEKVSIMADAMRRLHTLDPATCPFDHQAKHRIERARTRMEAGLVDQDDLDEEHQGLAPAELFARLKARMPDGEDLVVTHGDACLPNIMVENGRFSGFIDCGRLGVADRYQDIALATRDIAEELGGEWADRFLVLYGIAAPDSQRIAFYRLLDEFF | no binding | –
2 | human chorionic gonadotropin α (hCG-α) (ligand) not shown | – | no binding
